Test [1] concerns the target Recombinant human IL-17A (human) (UniProt Q16552). Put plainly: SPR.
For test [2] the target is unchanged. Put plainly: SPR, IL-17A immobilised, Fab as analyte.
Test [3] shares this target. Put plainly: SPR. The source holds these as a separate data set.
The target of test [4] is CR8071 lambda light chain L1 with E124Q_T131K. Put plainly: SMCA System C: four chains co-expressed, protein A, LC-MS.
Test [5] deals with Recombinant HER2 protein (HER2-ECD) (UniProt P04626). Put plainly: SPR, Fab captured via anti-penta-His, HER2 as analyte. A general note: In SPR one partner is held on a chip, and binding of the other changes the refractive index at the surface.
Test [6] has as its target Pertuzumab kappa light chain S131K_L135K. Put plainly: LCCA, SPR tag read-out.
Test [7] concerns the target Recombinant HER2 protein (HER2-ECD) (UniProt P04626). Put plainly: SPR.
The target of test [8] is Pertuzumab kappa light chain L135A (L2), N-terminal HA tag. Put plainly: LCCA, SPR of light chain tags.
For test [9], the target named is Pertuzumab kappa light chain T178F (L2), N-terminal HA tag. Put plainly: LCCA, SPR of light chain tags.
Test [10] concerns the target Pertuzumab kappa light chain, wild type (L2), N-terminal HA tag. Put plainly: LCCA, SPR of light chain tags.
Test [11] deals with CAT-2200 lambda light chain T116F_S176F (L1), N-terminal FLAG tag. Put plainly: LCCA, SPR of light chain tags.
Test [12] has as its target Pertuzumab kappa light chain L135A (L2), N-terminal HA tag. Put plainly: LCCA, SPR of light chain tags. This is another data set of the same source.
For test [13], the target named is Recombinant human IL-17A (human) (UniProt Q16552). Put plainly: SPR. This is another data set of the same source.
Test [14] has as its target Pertuzumab kappa light chain Q124E_V133D_L135A. Put plainly: LCCA, SPR tag read-out.
For test [15], the target named is Pertuzumab kappa light chain Q124E_V133D (L2), N-terminal HA tag. Put plainly: LCCA, SPR of light chain tags.
Test [16] has as its target CAT-2200 lambda light chain S176K_Y178K (L1), N-terminal FLAG tag. Put plainly: LCCA, SPR of light chain tags.
The target of test [17] is CAT-2200 lambda light chain S176K_Y178R (L1), N-terminal FLAG tag. Put plainly: LCCA, SPR of light chain tags.
The target of test [18] is Pertuzumab kappa light chain Q124E_V133D (L2), N-terminal HA tag. Put plainly: LCCA, SPR of light chain tags. This is another data set of the same source.
Test [19] shares this target. Put plainly: LCCA, SPR of light chain tags. This is another data set of the same source.
The target in test [20] is CR8071 lambda light chain E124Q_T131R (L1 of designs 3971, 3972 and 3987, system C). Put plainly: SMCA: H1, L1, H2, L2 co-expressed, protein A, LC-MS.
The target in test [21] is CR8071 lambda light chain L1 E124Q_T131R (designs 3971 and 3972, System C). Described as above.
Test [22] has as its target Pertuzumab kappa light chain S131K_V133G_S176R_T178A (L2), HA-tagged. Put plainly: LCCA, SPR of light-chain tags.
In test [23] the target is Pertuzumab kappa light chain S131R_V133G_S176R_T178A (L2), HA-tagged. Put plainly: LCCA, SPR of light-chain tags.
For test [24] the target is unchanged. Put plainly: LCCA, SPR of light-chain tags. This is another data set of the same source.
The target in test [25] is Pertuzumab kappa light chain V133A_S176K_T178A (L2), HA-tagged. Put plainly: LCCA, SPR of light-chain tags.
Test [26] concerns the target Pertuzumab kappa light chain V133G_S176R_T178A (L2), HA-tagged. Put plainly: LCCA, SPR of light-chain tags.
For test [27], the target named is Pertuzumab kappa light chain V133A_S176K_T178A (L2), HA-tagged. Put plainly: LCCA, SPR of light-chain tags. The source holds these as a separate data set.
Test [28] has as its target Pertuzumab kappa light chain V133G_S176R_T178A (L2), HA-tagged. Put plainly: LCCA, SPR of light-chain tags. The source holds these as a separate data set.
Test [29] addresses Pertuzumab kappa light chain Q124E_Q160E_T180E (L2), N-terminal HA tag. Put plainly: LCCA, SPR of light chain tags.
The target of test [30] is CAT-2200 lambda light chain S176K_Y178L (L1), N-terminal FLAG tag. Put plainly: LCCA, SPR of light chain tags.
The target of test [31] is Pertuzumab kappa light chain Q124E_Q160E_T180E (L2), N-terminal HA tag. Put plainly: LCCA, SPR of light chain tags. This is another data set of the same source.
Test [32] shares this target. Put plainly: LCCA, SPR of light chain tags. The source holds these as a separate data set.

Values joined by “and” are separate entries in the source; they are usually repeats but may differ in a detail not shown here. Identical values can stand only once. Like-named read-outs stand apart in the source and are kept apart here.

In the case of “CAT-2200 designed Fab heterodimer H1L1: H1 Q179K / L1 K129T_S180E”, the Change in KD of H1L1 Fab vs wild type in [1] is -0.056. Further, the Kd in [2] worked out at 0.24 nM.

Turning to “CAT-2200 wild type one-armed antibody (OAA), no tags”, the values for the dissociation constant (Kd) in [3] and in [1] were 0.287 nM and 0.282 nM, respectively.

In test [4], “CR8071 heavy chain H1 with L143E_K145T_Q179E” displayed a % H1L1 Pairing of 84.7% and a Change in % H1L1 Pairing with respect to wild type of 36.3%.

Consider “Pertuzumab designed Fab heterodimer H2L2: H2 L45P_L143E_K145T_Q179E / L2 P44F_Q124K_T178R”, for which the Kd in test [5] came out at 6 nM.

With Pertuzumab Fab heavy chain L124E_K145T, the H2L2:H2L1 median scalar value in [6] is 0.85 ln(ratio).

In the case of “Pertuzumab designed Fab heterodimer H2L2: H2 Q39E_L143E_K145T_Q179E / L2 Q38R_Q124K_T178R”, the Change in KD of H2L2 Fab vs wild type in [7] turned out to be 0.023. In addition, in test [5], the Kd was 7.4 nM.

“Pertuzumab Fab heavy chain L143I_V190F (H2), ABD2-His6 tagged”: the H2L2:H2L1 normalized median ratio came to 46% in test [8]; 65% in test [9]; 62% in test [10]; 38% in [11]; 49% in test [12]. Also, the H2L2:H2L1 normalized median scalar value ln(r1/f1) was -0.16 in test [8], 0.62 in test [9], 0.49 in test [10] and -0.04 in [12].

Regarding “CAT-2200 designed Fab heterodimer H1L1: H1 L143E_K145T_Q179E / L1 E124Q_T131R”, the Change in KD of H1L1 Fab vs wild type in test [1] was -0.14. Besides, the equilibrium dissociation constant (Kd) in test [2] was 0.29 nM.

In the case of “CAT-2200 Fab heterodimer (H1L1) with H1 S188K and L1 S176D_Y178E”, in test [13], the Kd was determined as 0.37 nM. In test [1], the Change in KD of H1L1 Fab vs wild type is -0.13; the Change in KD of H1L1 Fab vs wild type, -(log(KD design)-log(KD wt)) was -0.13; the Kd amounted to 0.37 nM.

Take Pertuzumab Fab heavy chain L143R_V190F: the H2L2:H2L1 median scalar value in [14] was 1.25 ln(ratio).

On to “Pertuzumab Fab heavy chain L143R (H2), ABD2-His6 tagged”, for which the H2L2:H2L1 normalized median ratio amounted to 82% in [15]; 21% in [16]; 14% in [17]; 86% in test [18]; 79% in test [19]. The figures for the H2L2:H2L1 normalized median scalar value ln(r1/f1) in test [15], in test [18] and in [19] were 1.53, 1.84 and 1.3, respectively.

In [20], “CR8071 heavy chain L143D_K145T (H1 of design 3971, system C)” gave a % H1L1 Pairing of 89% and a Change in % H1L1 Pairing with respect to wild type of 40.6%.

As to “CAT-2200 wild type one-armed antibody (OAA), HA-tagged light chain”, the values for the Kd in test [3] and in test [1] were 0.35 nM and 0.373 nM, respectively.

In test [21], “CR8071 heavy chain H1 A139W_L143D_K145T (design 3972, System C)” returned a % H1L1 Pairing of 92.8% and a Change in % H1L1 Pairing with respect to wild type of 44.4%.

In the case of CR8071 heavy chain H1 with L143D_K145T, in test [4], the % H1L1 Pairing amounted to 79.7% and the Change in % H1L1 Pairing with respect to wild type worked out at 11.6%.

For the substance “Pertuzumab Fab heavy chain L124E_K145T_Q179E_S186I_S188W (H2)”, the H2L2:H2L1 normalized median scalar value ln(r1/f1) worked out at 0.9 in test [22], 1.24 in test [23] and 1.55 in test [24].

For the substance “Pertuzumab designed Fab heterodimer H2L2: H2 L45P_L124E_K145T_Q179E / L2 P44F_S131R_V133G_S176R”, the dissociation constant Kd in test [5] is 5.8 nM.

As for “Pertuzumab Fab heavy chain L124E_S186I_S188W (H2)”, the H2L2:H2L1 normalized median scalar value ln(r1/f1) in test [25] was 0.65; in test [26] it was 0.94; in test [27], 1.03; in test [28], 1.19.

Take “CAT-2200 Fab heterodimer (H1L1) with H1 V177I_S188K and L1 V133I_S176D_Y178E”: the Kd in test [13] was 0.23 nM. The Change in KD of H1L1 Fab vs wild type in test [1] came out at 0.08.

In test [21], “CR8071 heavy chain H1 L143D_K145T (design 3971, System C)” had a % H1L1 Pairing of 89% and a Change in % H1L1 Pairing with respect to wild type of 40.6%.

With “CAT-2200 designed Fab heterodimer H1L1: H1 S186R / L1 K129T_S180E”, the Change in KD of H1L1 Fab vs wild type in [1] was -0.088. Besides, the dissociation constant Kd in test [2] came out at 0.26 nM.

Take “CAT-2200 designed Fab heterodimer H1L1: H1 L143K / L1 K129T_V133D”: the Change in KD of H1L1 Fab vs wild type in [1] was -0.09. Besides, in test [2], the Kd turned out to be 0.26 nM.

On to “CAT-2200 Fab heterodimer (H1L1) with H1 S188K and L1 S176E_Y178E”, for which the Kd in test [13] stood at 0.36 nM. The Change in KD of H1L1 Fab vs wild type in [1] is -0.12.

For the substance “Pertuzumab Fab heavy chain Q179K (H2), ABD2-His6 tagged”, the H2L2:H2L1 normalized median ratio turned out to be 87% in test [29]; 9% in test [16]; 13% in test [30]; 4% in test [17]; 96% in test [31]; 91% in [32]. Further, the figures for the H2L2:H2L1 normalized median scalar value ln(r1/f1) in [29], in test [31] and in test [32] were 1.88, 3.21 and 2.33, respectively.

Take “Pertuzumab designed Fab heterodimer H2L2: H2 Q39E_L124E_K145T_Q179E / L2 Q38R_S131R_V133G_S176R”: the Change in KD of H2L2 Fab vs wild type in [7] was -0.0084. Also, the Kd in test [5] came to 7.9 nM.

As for “Pertuzumab Fab heavy chain S186R (H2), ABD2-His6 tagged”, the H2L2:H2L1 normalized median ratio in [29] is 89%; in [16], 4%; in [30], 11%; in [31] it was 97%; in test [32], 96%. The H2L2:H2L1 normalized median scalar value ln(r1/f1) worked out at 2.07 in test [29], 3.46 in test [31] and 3.29 in test [32].

Turning to “CR8071 heavy chain A139W_L143D_K145T (H1 of designs 3972 and 3987, system C)”, in test [20], the % H1L1 Pairing is 92.8% and 99.2%; the Change in % H1L1 Pairing with respect to wild type is 44.4% and 50.8%.

As to “Pertuzumab Fab heavy chain L143I_S186K_V190F”, in test [14], the H2L2:H2L1 median scalar value is -0.49 ln(ratio).

As to Pertuzumab Fab heavy chain S186K_V190F, the H2L2:H2L1 median scalar value in [14] was -0.45 ln(ratio).

Take “CAT-2200 wild type one-armed antibody (OAA), FLAG-tagged light chain”: the dissociation constant (Kd) in [3] was 0.366 nM; in test [1] it was 0.375 nM.

Broadly, the Kd is the free concentration of one partner at which half of the binding sites on the other are occupied at equilibrium, for simple one-to-one binding.

The record behind these values is US20190338048A1.
